Reference: patent US20200079855A1 (Pfizer, published 2020)
Changes are numbered by the printed parent chain. Names and notes keep the numbering of the source. Values joined by “and” are separate entries in the source; they are usually repeats but may differ in a detail not shown here. Equal entries are not always repeated. Values belong to the binder of their own block, whether it stands above or below them.

Assays:
[1] = biological target: recombinant human αvβ8 integrin (human) (UniProt P06756); assay: ELISA (DELFIA counts) on human αvβ8, Fab titration
[2] = biological target: T1, human αvβ8 integrin on U251 cells (human, UniProt P06756 31-1048); assay: flow cytometry, Fab binding to fixed U251 cells (MFI APC-A); EC50 unit inferred, axis Log10 [Ab] (nM)
[3] = biological target: T1, human αvβ8 integrin on U251 cells; assay: cell-based or functional assay
[4] = biological target: T1, human αvβ8 integrin on U251 cells; assay: flow cytometry, Fab binding to fixed U251 cells (ΔMFI, background subtracted); EC50 unit inferred, axis Log10 [Ab] (nM)
[5] = biological target: recombinant human αvβ8 integrin (human) (UniProt P06756); assay: SPR (Biacore), Fab affinity of Table 3
[6] = biological target: T1, human αvβ8 integrin on U251 cells; assay: flow cytometry, Fab binding to fixed U251 cells (ΔMFI, background subtracted); EC50 unit inferred, axis Log10 [FAB] nM
[7] = biological target: T1, human αvβ8 integrin on U251 cells; assay: flow cytometry, IgG binding to U251 cells (MFI PE-A), left panel ADWA11_IgG_U251 cell binding; EC50 unit inferred, axis Log10 [mAb] nM
[8] = biological target: T2, mouse αvβ8 integrin on C8-S cells (mouse, UniProt P43406 31-1044; Q0VBD0 22-767); assay: flow cytometry, IgG binding to C8-S cells (MFI PE-A), right panel ADWA11_IgG_C8-S cell binding; EC50 unit inferred, axis Log10 [mAb] nM
T2 construct: Endogenous αvβ8 of C8-S mouse astrocyte cells; also called C8-S (mouse astrocyte); C8-S (mouse avb8)
Description: 100,000 cells were incubated with a dilution series of the anti-αvβ8 or human IgG1_3 mut Isotype antibody for three to four hours on ice. The cells were spun down for five minutes at 300 g force. The cells were then washed three times with wash buffer (PBS+0.2% BSA) to remove excess unbound antibodies. After thorough washing, cells were incubated with Fab′2 anti-human Fc-PE (Invitrogen) or goat Fab′2 anti-mouse-APC (Jackson Labs) at 1:1000 dilution along with LIVE/DEAD fixable cell stain (Invitrogen) at 1:2000 to distinguish live cells. The whole content was incubated for 30 minutes on ice. After washing, the stained cells were analyzed on BD biosciences Fortessa flow cytometer (gated for live cells) using FlowJo analysis software. The mean fluorescence intensities (MFI) at different antibody concentrations were plotted for various antibodies.
The apparent-affinity of ADWA11 2.4 for U251 (human glioblastoma) or C8-S (mouse astrocyte) cells was also evaluated in a cell-binding assay, according to the methods as generally described herein. Briefly, cells were incubated with a serial dilution of ADWA11 2.4 for 4 hours on ice, followed by detection on bound antibody with an anti-human-PE secondary antibody, and analyzed by flow cytometry.

[9] = biological target: T3, recombinant human αvβ6 integrin (human, UniProt P06756 31-992; P18564 22-707); assay: Biacore, recombinant human αvβ6 immobilised on the chip; concentration not shown
T3 construct: Used in ELISA and immobilised on the Biacore chip; construct not described; also called hαvβ6; AVB6
Description: (§1) To evaluate the specificity of ADWA11 2.4, recombinant human αvβ6 and αvβ3 were immobilized on a Biacore chip and binding of the parental murine and humanized mAb variant of ADWA11 2.4 was determined.

[10] = biological target: T4, recombinant human αvβ3 integrin (human, UniProt P06756 31-992; P05106 27-718); assay: Biacore, recombinant human αvβ3 immobilised on the chip; concentration not shown
T4 construct: Used in ELISA and immobilised on the Biacore chip; construct not described; also called hαvβ3; AVB3
Description: as §1

recombinant human αvβ8 integrin (human), sequence (P06756 31-992 limits assumed, form in doubt, chain 1 of 2): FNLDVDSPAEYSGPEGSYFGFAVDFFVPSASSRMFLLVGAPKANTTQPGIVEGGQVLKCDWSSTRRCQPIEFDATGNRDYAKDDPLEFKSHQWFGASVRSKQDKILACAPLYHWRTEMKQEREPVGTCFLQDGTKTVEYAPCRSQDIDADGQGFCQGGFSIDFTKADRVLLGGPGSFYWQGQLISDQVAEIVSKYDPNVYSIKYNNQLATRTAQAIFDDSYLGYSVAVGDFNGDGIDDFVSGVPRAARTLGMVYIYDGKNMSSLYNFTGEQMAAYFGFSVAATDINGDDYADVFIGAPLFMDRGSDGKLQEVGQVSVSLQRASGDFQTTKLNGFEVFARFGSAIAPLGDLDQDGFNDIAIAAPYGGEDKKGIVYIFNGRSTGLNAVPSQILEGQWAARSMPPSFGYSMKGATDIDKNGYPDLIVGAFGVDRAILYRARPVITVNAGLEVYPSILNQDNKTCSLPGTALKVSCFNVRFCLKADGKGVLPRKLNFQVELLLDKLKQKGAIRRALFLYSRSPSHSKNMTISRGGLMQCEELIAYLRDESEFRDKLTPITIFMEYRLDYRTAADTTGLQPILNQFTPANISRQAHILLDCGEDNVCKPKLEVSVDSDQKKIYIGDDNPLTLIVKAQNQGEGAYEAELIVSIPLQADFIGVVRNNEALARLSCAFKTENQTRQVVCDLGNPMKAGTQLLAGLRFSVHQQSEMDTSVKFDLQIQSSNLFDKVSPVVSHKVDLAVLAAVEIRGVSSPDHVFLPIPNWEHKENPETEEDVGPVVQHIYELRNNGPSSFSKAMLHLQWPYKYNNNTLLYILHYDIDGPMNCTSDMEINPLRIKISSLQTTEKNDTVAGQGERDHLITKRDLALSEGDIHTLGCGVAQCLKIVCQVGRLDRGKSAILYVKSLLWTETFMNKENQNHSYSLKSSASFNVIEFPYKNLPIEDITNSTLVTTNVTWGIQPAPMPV
recombinant human αvβ8 integrin (human), sequence (chain, as listed by the source limits assumed, form in doubt, chain 2 of 2): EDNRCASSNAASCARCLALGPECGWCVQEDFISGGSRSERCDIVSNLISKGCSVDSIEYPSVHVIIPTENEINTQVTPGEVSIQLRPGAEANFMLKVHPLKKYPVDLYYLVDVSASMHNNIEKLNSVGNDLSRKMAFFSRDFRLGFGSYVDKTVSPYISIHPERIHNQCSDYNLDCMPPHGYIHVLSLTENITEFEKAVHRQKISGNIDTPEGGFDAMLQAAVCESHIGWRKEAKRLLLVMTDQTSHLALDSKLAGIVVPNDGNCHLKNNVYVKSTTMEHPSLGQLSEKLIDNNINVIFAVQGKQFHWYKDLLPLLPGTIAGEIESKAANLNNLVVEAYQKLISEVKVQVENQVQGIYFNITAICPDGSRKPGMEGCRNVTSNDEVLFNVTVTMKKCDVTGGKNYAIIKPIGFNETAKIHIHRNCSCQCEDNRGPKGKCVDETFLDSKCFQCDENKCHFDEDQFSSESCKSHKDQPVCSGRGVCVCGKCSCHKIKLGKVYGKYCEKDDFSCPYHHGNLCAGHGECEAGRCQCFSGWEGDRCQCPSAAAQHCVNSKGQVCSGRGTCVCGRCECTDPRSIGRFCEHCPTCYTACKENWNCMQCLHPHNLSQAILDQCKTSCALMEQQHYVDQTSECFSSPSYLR
T2 sequence (P43406 31-1044 limits assumed, chain 1 of 2): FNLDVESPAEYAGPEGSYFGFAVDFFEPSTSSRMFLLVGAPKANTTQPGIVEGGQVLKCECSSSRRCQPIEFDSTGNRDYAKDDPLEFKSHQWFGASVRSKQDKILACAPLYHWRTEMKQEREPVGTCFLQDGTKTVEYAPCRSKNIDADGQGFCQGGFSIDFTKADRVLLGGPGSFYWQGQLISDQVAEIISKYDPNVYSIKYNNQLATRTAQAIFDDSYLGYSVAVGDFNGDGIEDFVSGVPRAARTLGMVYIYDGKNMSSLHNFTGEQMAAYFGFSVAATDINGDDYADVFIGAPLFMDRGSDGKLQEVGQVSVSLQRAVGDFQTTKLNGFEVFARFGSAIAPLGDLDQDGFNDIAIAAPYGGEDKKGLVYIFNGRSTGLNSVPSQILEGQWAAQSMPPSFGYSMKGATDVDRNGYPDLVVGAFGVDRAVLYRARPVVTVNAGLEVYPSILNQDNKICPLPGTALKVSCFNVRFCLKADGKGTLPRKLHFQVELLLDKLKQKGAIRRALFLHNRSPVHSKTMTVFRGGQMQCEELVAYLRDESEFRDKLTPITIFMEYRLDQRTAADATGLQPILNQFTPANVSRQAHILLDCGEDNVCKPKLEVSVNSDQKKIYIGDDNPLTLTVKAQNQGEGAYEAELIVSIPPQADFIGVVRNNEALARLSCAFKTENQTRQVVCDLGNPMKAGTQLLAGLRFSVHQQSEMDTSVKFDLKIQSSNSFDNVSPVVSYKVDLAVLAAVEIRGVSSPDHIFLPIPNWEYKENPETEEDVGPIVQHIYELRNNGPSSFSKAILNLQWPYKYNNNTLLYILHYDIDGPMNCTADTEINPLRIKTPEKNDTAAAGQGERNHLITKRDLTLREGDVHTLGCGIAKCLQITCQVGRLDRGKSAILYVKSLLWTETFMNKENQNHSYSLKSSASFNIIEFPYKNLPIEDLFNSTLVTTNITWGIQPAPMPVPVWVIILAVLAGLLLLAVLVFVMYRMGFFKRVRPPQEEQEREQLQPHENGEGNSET
T2 sequence (Q0VBD0 22-767 limits assumed, chain 2 of 2): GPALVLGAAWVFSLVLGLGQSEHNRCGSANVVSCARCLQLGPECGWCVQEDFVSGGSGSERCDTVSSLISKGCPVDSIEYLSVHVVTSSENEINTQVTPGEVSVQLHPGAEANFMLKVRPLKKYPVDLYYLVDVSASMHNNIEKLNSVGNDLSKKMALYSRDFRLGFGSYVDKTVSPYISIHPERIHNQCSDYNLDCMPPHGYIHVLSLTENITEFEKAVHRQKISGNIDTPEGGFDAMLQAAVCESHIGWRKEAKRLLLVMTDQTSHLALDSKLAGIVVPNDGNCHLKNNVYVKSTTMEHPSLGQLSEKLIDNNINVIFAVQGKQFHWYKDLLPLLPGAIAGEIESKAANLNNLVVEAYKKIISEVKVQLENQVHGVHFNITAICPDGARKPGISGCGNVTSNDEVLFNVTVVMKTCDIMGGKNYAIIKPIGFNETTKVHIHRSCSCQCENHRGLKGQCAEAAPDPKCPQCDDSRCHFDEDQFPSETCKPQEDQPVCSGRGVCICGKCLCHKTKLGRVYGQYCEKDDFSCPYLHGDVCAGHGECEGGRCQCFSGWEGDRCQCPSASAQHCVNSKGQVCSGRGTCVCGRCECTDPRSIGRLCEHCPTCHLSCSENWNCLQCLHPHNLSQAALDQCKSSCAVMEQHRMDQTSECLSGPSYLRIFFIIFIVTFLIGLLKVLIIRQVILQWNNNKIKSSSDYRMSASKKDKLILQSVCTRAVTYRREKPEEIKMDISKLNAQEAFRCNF
T4 sequence (P06756 31-992 limits assumed, chain 1 of 2): as the sequence (P06756 31-992 limits assumed, form in doubt, chain 1 of 2) above
T4 sequence (P05106 27-718 limits assumed, chain 2 of 2): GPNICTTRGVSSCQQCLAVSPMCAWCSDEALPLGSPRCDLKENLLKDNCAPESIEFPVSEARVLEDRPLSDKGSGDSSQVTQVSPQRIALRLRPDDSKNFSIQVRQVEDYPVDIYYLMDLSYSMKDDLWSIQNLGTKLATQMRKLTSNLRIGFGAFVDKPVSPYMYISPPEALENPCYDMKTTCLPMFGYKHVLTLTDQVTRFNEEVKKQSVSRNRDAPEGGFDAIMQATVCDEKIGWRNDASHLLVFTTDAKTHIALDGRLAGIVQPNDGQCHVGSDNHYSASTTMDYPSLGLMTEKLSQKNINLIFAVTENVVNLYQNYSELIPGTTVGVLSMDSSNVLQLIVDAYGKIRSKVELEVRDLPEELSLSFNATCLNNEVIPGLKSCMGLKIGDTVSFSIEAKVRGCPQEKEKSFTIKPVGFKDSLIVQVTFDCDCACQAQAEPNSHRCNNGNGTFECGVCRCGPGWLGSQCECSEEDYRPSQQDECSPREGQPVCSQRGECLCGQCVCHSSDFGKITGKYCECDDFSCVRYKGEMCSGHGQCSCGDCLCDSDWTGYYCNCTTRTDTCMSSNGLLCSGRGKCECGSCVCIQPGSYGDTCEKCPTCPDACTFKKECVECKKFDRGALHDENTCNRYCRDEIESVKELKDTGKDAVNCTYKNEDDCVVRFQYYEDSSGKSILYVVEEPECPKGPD
T3 sequence (P06756 31-992 limits assumed, chain 1 of 2): as the sequence (P06756 31-992 limits assumed, form in doubt, chain 1 of 2) above
T3 sequence (P18564 22-707 limits assumed, chain 2 of 2): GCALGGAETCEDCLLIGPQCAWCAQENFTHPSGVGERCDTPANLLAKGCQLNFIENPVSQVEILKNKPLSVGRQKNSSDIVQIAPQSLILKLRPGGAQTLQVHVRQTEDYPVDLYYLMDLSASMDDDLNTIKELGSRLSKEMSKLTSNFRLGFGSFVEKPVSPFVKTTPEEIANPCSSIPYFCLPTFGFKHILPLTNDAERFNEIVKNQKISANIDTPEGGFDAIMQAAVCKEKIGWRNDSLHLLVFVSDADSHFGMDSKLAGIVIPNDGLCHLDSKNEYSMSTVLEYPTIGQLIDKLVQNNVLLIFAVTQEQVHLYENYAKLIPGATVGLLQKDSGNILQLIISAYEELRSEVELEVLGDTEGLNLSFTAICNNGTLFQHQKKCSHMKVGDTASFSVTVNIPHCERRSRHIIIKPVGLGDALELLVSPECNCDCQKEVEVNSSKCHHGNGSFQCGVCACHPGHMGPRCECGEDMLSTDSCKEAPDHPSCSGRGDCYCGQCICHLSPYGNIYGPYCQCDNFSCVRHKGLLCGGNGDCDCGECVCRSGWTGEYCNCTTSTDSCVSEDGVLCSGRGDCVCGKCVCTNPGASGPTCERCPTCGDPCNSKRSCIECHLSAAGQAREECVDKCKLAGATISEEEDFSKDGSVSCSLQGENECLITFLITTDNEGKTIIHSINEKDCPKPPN

B2: ADWA11 2.1 (F64V) Fab (Fab, V domains shown)
VH: EVQLVESGGGLVQPGGSLRLSCAASGFNIKDYYMNWVRQAPGKGLEWVGWIDPDQGNTIYEPKVQGRFTISADTSKNSAYLQMNSLRAEDTAVYYCARRLLMDYWGQGTLVTVSS
VL: DIQMTQSPSSLSASVGDRVTITCRSTKSLSHFNGNTYLFWYQQKPGKAPKRLIYYMSNLASGVPSRFSGSGSGTDFTLTISSLQPEDFATYYCQQSLEYPFTFGGGTKVEIK
EC50 [2]: 0.225 nM

B3: ADWA11 VH03/VK01 IgG (antibody, V domains shown)
VH: B2 VH with Q55N, E61D, V64F, T74N, S75A
VL: B2 VL with S30L, Q94M, G105Q
IgG Potency TGFB Assay IC50 (pM) [3]: 138 pM

B5: ADWA11 VH03/VK02 Fab (Fab, V domains shown)
VH: B2 VH with Q55N, E61D, V64F, T74N, S75A
VL: B2 VL with S30L, Y41F, Q94M, G105Q
Kd [5]: 0.373 nM and 0.37 nM

B7: ADWA11 VH01/VK01 IgG (antibody, V domains shown)
VH: B2 VH with G49A, Q55N, E61D, V64F, A72R, T74N, S75A, A79L
VL: B2 VL with S30L, Q94M, G105Q
IgG Potency TGFB Assay IC50 (pM) [3]: 8470 pM

B8: ADWA11 VH01/VK01 Fab (Fab, V domains shown)
VH: B2 VH with G49A, Q55N, E61D, V64F, A72R, T74N, S75A, A79L
VL: B2 VL with S30L, Q94M, G105Q
Kd [5]: 6.86 nM

B17: ADWA11 2.3 Fab (Fab, V domains shown)
VH: B2 VH with V64F
VL: B2 VL with M56A
EC50 [2]: 0.452 nM

B18: ADWA11 VH02/VK01 IgG (antibody, V domains shown)
VH: B2 VH with G49A, Q55N, E61D, V64F, T74N, S75A, A79L
VL: B2 VL with S30L, Q94M, G105Q
IgG Potency TGFB Assay IC50 (pM) [3]: 1760 pM

B23: ADWA11 VH02/VK01 Fab (Fab, V domains shown)
VH: B2 VH with G49A, Q55N, E61D, V64F, T74N, S75A, A79L
VL: B2 VL with S30L, Q94M, G105Q
Kd [5]: 1.89 nM

B24: ADWA11 2.4 (F64V) Fab (Fab, V domains shown)
VH: B2 VH
VL: B2 VL with N58S
EC50 [2]: 0.211 nM

B25: ADWA11 VH05-2/VK01 IgG (antibody, V domains shown)
VH: B2 VH with V64F
VL: B2 VL with S30L, Q94M, G105Q
notes: also called ADWA11 5-2_1; VH05/VK01-N55Q-D61E
EC50 [7]: 0.0711 nM | binding result [9]: no binding | binding result [10]: no binding | EC50 [8]: 0.0591 nM

B26: ADWA11 VH05-2/VK01 Fab (parental) (Fab, V domains shown)
VH: B2 VH with V64F
VL: B2 VL with S30L, Q94M, G105Q
EC50 [6]: 0.613 nM | EC50 [4]: 0.224 nM | EC50 [2]: 0.198 nM

B27: ADWA11 VH03/VK02 IgG (antibody, V domains shown)
VH: B2 VH with Q55N, E61D, V64F, T74N, S75A
VL: B2 VL with S30L, Y41F, Q94M, G105Q
IgG Potency TGFB Assay IC50 (pM) [3]: 223 pM

B28: ADWA11 2.1 Fab (Fab, V domains shown)
VH: B2 VH with V64F
VL: B2 VL
EC50 [2]: 0.218 nM

B29: ADWA11 2.2 Fab (Fab, V domains shown)
VH: B2 VH with V64F
VL: B2 VL with Q94M, L97Y
EC50 [2]: 0.225 nM

B30: ADWA11 VH03/VK01 Fab (Fab, V domains shown)
VH: B2 VH with Q55N, E61D, V64F, T74N, S75A
VL: B2 VL with S30L, Q94M, G105Q
Kd [5]: 0.0735 nM and < 0.1 nM | fold lower KD than the mouse hybridoma antibody ADWA-11 [5]: > 5 fold

B31: ADWA11 2.3 (F64V) Fab (Fab, V domains shown)
VH: B2 VH
VL: B2 VL with M56A
EC50 [2]: 0.28 nM

Second part, the binder after the results:

EC50 (read off the curve) [1]: 1 nM
B1: ADWA11 VH05/VK01 Fab with N57Q in VH (Fab, V domains shown)
VH: B2 VH with Q55N, N57Q, E61D, V64F
VL: B2 VL with S30L, Q94M, G105Q

EC50 [4]: 0.205 nM
B4: ADWA11 VH05-2/VK01 Fab with M56A in VL (Fab, V domains shown)
VH: B2 VH with V64F
VL: B2 VL with S30L, M56A, Q94M, G105Q

EC50 (read off the curve) [1]: 1 nM
B6: ADWA11 VH05/VK01 Fab with N55Q in VH (Fab, V domains shown)
VH: B2 VH with E61D, V64F
VL: B2 VL with S30L, Q94M, G105Q

EC50 [6]: 0.544 nM
B9: ADWA11 VH05-2/VK01 Fab with L97Y in VL (Fab, V domains shown)
VH: B2 VH with V64F
VL: B2 VL with S30L, Q94M, L97Y, G105Q

EC50 (read off the curve) [1]: 1 nM
B10: ADWA11 VH05/VK01 Fab with K30A in VH (Fab, V domains shown)
VH: B2 VH with K30A, Q55N, E61D, V64F
VL: B2 VL with S30L, Q94M, G105Q

EC50 (read off the curve) [1]: 1 nM
B11: ADWA11 VH05/VK01 Fab with K63A in VH (Fab, V domains shown)
VH: B2 VH with Q55N, E61D, K63A, V64F
VL: B2 VL with S30L, Q94M, G105Q

EC50 [6]: 0.486 nM
B12: ADWA11 VH05-2/VK01 Fab with Q105G in VL (Fab, V domains shown)
VH: B2 VH with V64F
VL: B2 VL with S30L, Q94M

EC50 [6]: 0.544 nM
B13: ADWA11 VH05-2/VK01 Fab with L30S in VL (Fab, V domains shown)
VH: B2 VH with V64F
VL: B2 VL with Q94M, G105Q

EC50 [7]: 0.1 nM | EC50 [8]: 0.106 nM
B14: ADWA11 VH05-2/VK01(2.1) antibody (antibody, V domains shown)
VH: B2 VH with V64F
VL: B2 VL
notes: also called ADWA11 2.1

EC50 (read off the curve) [1]: 1 nM
B15: ADWA11 VH05/VK01 Fab with D61E in VH (Fab, V domains shown)
VH: B2 VH with Q55N, V64F
VL: B2 VL with S30L, Q94M, G105Q

EC50 (read off the curve) [1]: 1 nM
B16: ADWA11 VH05/VK01 Fab with P62A in VH (Fab, V domains shown)
VH: B2 VH with Q55N, E61D, P62A, V64F
VL: B2 VL with S30L, Q94M, G105Q

EC50 [6]: 0.641 nM
B19: ADWA11 VH05-2/VK01 Fab with M94Q in VL (Fab, V domains shown)
VH: B2 VH with V64F
VL: B2 VL with S30L, G105Q

EC50 [4]: 0.229 nM
B20: ADWA11 VH05-2/VK01 Fab with N58S in VL (Fab, V domains shown)
VH: B2 VH with V64F
VL: B2 VL with S30L, N58S, Q94M, G105Q

EC50 [6]: 1.56 nM
B21: ADWA11 VH05-2/VK01 Fab with F101L in VL (Fab, V domains shown)
VH: B2 VH with V64F
VL: B2 VL with S30L, Q94M, F101L, G105Q

EC50 [6]: 0.588 nM
B22: ADWA11 VH05-2/VK01 Fab with F64V in VH (Fab, V domains shown)
VH: B2 VH
VL: B2 VL with S30L, Q94M, G105Q

binding result [9]: no binding | binding result [10]: no binding
B32: ADWA11 VH05-1/VK01 IgG (antibody, V domains shown)
VH: B2 VH with Q55N, V64F
VL: B2 VL with S30L, Q94M, G105Q
notes: VH05 with D61E; also called ADWA11 5-1_1; VH05/VK01-D61E
